Where no end group is shown, it is not given here.
T1: human RXFP3 (human, UniProt Q9NSD7 1-469)
T1 construct: whole, on cells; also called GPCR135; RXFP3 receptor
T1 sequence (looked up): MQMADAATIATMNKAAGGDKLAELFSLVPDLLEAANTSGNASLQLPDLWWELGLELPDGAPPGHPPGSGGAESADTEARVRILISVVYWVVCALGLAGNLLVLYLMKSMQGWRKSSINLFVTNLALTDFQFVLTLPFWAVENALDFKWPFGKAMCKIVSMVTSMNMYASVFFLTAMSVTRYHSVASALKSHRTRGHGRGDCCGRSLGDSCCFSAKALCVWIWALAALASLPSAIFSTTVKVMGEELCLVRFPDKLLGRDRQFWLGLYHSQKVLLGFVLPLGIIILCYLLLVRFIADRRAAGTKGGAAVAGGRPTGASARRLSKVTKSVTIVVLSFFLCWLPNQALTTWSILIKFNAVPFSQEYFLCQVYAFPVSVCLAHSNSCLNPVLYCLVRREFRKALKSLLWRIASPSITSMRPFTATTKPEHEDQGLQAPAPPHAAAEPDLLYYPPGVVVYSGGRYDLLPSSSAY

T2: human RXFP1 (human, UniProt Q9HBX9 1-757)
T2 construct: whole, on cells; also called LGR7; RXFP1 receptor
T2 sequence (looked up): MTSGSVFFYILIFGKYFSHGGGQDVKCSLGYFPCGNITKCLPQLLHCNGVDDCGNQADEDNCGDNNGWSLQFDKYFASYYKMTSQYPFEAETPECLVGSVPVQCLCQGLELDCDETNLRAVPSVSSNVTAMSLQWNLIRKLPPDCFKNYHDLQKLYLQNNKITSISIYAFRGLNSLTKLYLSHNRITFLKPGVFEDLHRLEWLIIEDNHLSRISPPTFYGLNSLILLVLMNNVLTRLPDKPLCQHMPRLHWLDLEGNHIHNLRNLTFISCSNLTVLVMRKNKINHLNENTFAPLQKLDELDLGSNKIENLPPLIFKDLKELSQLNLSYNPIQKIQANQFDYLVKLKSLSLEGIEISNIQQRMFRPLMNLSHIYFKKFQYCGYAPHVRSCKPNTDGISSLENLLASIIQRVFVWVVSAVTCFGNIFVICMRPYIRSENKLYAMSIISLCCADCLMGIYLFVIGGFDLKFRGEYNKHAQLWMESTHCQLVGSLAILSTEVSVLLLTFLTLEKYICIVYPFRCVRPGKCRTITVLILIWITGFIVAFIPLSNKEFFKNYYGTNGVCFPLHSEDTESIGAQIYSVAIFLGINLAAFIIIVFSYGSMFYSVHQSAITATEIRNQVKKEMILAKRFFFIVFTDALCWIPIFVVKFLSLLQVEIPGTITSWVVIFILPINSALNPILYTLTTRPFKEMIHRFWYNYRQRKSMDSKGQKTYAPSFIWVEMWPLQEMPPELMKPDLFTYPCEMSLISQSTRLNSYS


biological target: T1, human RXFP3; experiment: competition binding vs Eu-DTPA-R3/I5 on HEK-293T cells expressing human RXFP3 (Table 2 cell: 'No activity')
Description: (§1) Binding assays were carried out as follows. […] The cells were incubated at room temperature for 60 min before the peptide solution was aspirated off and the cells washed with PBS.

Row | binding result | Binder
1 | no binding | VRLSGREFIRAVIFTSR-NH2 (Synthetic single chain peptide) [H3 B7-22R]
2 | no binding | RAAPYGVRLSGREFIRAVIFTS-NH2 (Synthetic single chain peptide) [H3 B1-22]

biological target: T2, human RXFP1; experiment: competition binding vs Eu-DTPA-H2 relaxin on HEK-293T cells transfected with RXFP1 (FIG. 7)
Description: as §1

Row | binding result | Binder
3 | binds | RAAPYGVRLSGREFIRAVIFTSR-NH2 (Synthetic single chain peptide; also called R3 B1-22R; R3 1-22R) [H3 B1-22R]

biological target: T1, human RXFP3; experiment: competition binding vs Eu-DTPA-R3/I5 on HEK-293T cells stably expressing human RXFP3, time-resolved fluorescence, n = 3
Description: as §1

Row | pIC50 | Binder
4 | 6.37 | YGVRLSGREFIRAVIFTSR-NH2 (Synthetic single chain peptide) [H3 B5-22R]
5 | 5.6 | RAAPYGVRLSGREFIRAVIFTSGGSRW-OH (Synthetic single chain peptide; also called H3 relaxin B chain; native H3 B chain) [H3 B-chain C10/22S]
6 | 6.66 | PYGVRLSGREFIRAVIFTSR-NH2 (Synthetic single chain peptide) [H3 B4-22R]
7 | 6.33 | GVRLSGREFIRAVIFTSR-NH2 (Synthetic single chain peptide) [H3 B6-22R]

The remaining lines, values behind:

Row | Binder | pIC50
8 | RAAPYGVRLSGREFIRAVIFTSR-OH (Synthetic single chain peptide) [H3 B1-22R Acid] | 6.46
9 | APYGVRLSGREFIRAVIFTSR-NH2 (Synthetic single chain peptide) [H3 B3-22R] | 6.71
10 | AAPYGVRLSGREFIRAVIFTSR-NH2 (Synthetic single chain peptide) [H3 B2-22R] | 7.06
11 | RAAPYGVRLSGREFIRAVIFTSR-NH2 (Synthetic single chain peptide; also called R3 B1-22R; R3 1-22R) [H3 B1-22R] | 7.75
12 | RAAPYGVRLAGREFIRAVIFTAR-NH2 (Synthetic single chain peptide) [H3 B1-22R C10/22A] | 6.83
